According to patent US20090048164A1:
No end group written: not given here. FLAG = FLAG tag

biological target: Recombinant human Bcl-xL with a 25 amino acid truncation of its C-terminus (human) (UniProt Q07817); experiment: competition phage ELISA
Sequence (Q07817 1-208): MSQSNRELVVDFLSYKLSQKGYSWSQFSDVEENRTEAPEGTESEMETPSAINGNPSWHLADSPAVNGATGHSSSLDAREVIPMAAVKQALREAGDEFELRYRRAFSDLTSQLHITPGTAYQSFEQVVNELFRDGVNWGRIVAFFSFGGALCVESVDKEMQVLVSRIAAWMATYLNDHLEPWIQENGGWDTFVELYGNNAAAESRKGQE

Row | Binder | Fold/wt [fold] | IC50 [µM]
1 | NLAAAQRYGRELRRMSDEFVDSFKKG [Bad BH3 W3A, phage-displayed] | 1 | 0.003
2 | NLWAAQRYGRELRRMSDEFVDAFKKG [Bad BH3 S22A, phage-displayed] | 2 | 0.004
3 | NLWAAQRYGRELRRMSAEFVDSFKKG [Bad BH3 D17A, phage-displayed] | 7 | 0.016
4 | NLWEAQRYGRELRRMSDEFVDSFKKG [Bad BH3 A4E, phage-displayed] | 2 | 0.004
5 | NLWAEQRYGRELRRMSDEFVDSFKKG [Bad BH3 A5E, phage-displayed] | 5 | 0.012
6 | ALWAAQRYGRELRRMSDEFVDSFKKG [Bad BH3 N1A, phage-displayed] | 1 | 0.002
7 | NLWAAARYGRELRRMSDEFVDSFKKG [Bad BH3 Q6A, phage-displayed] | 2 | 0.003
8 | NLWAAQRYGRELRRMSDEFVASFKKG [Bad BH3 D21A, phage-displayed] | 1 | 0.002
9 | NLWAAQRYGRELRRMSDEAVDSFKKG [Bad BH3 F19A, phage-displayed] | 12 | 0.027
10 | NLWAAQRYGAELRRMSDEFVDSFKKG [Bad BH3 R10A, phage-displayed] | 1 | 0.003
11 | NLWAAQRYGRELRRMSDEFADSFKKG [Bad BH3 V20A, phage-displayed] | 1 | 0.003
12 | NLWAAQRYGRELRRASDEFVDSFKKG [Bad BH3 M15A, phage-displayed] | 3 | 0.006
13 | NAWAAQRYGRELRRMSDEFVDSFKKG [Bad BH3 L2A, phage-displayed] | 2 | 0.004
14 | NLWAAQRYGRELRRMSDEFVDSFAKG [Bad BH3 K24A, phage-displayed] | 2 | 0.004
15 | NLWAAQRYGRELRRMSDEFVDSFKKE [Bad BH3 G26E, phage-displayed] | 1 | 0.003
16 | NLWAAQRYGRELRRMSDEFVDSFKAG [Bad BH3 K25A, phage-displayed] | 2 | 0.004
17 | NLWAAQRYGRELRRMSDAFVDSFKKG [Bad BH3 E18A, phage-displayed] | 2 | 0.004
18 | NLWAAQAYGRELRRMSDEFVDSFKKG [Bad BH3 R7A, phage-displayed] | 2 | 0.004
19 | NLWAAQRYGRELRAMSDEFVDSFKKG [Bad BH3 R14A, phage-displayed] | 2 | 0.004
20 | NLWAAQRYGRELRRMSDEFVDSAKKG [Bad BH3 F23A, phage-displayed] | 2 | 0.004
21 | NLWAAQRAGRELRRMSDEFVDSFKKG [Bad BH3 Y8A, phage-displayed] | 3 | 0.007
22 | NLWAAQRYGRELARMSDEFVDSFKKG [Bad BH3 R13A, phage-displayed] | 1 | 0.003

biological target: mouse Mcl-1 with truncations of 151 amino acid residues at its N-terminus and 23 residues at its C-terminus (mouse) (UniProt P97287); experiment: competition phage ELISA
Sequence (P97287 152-308): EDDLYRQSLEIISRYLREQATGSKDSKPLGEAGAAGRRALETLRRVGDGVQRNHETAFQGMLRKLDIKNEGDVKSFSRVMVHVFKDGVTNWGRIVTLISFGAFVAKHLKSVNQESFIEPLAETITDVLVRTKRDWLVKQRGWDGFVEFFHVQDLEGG

Row | Binder | Fold/wt [fold] | IC50 [µM]
23 | {FLAG}-RAELAPEFAAQLRKIGDKVYCTWSAP-{GGGT-g3(249-406)} [mNoxaA BH3 P5A, phage-displayed] | 1 | 0.02
24 | {FLAG}-RAELPPEAAAQLRKIGDKVYCTWSAP-{GGGT-g3(249-406)} [mNoxaA BH3 F8A, phage-displayed] | 1 | 0.024
25 | {FLAG}-RAELPPEFAAQLRKIGDKVYCAWSAP-{GGGT-g3(249-406)} [mNoxaA BH3 T22A, phage-displayed] | < 1 | 0.014
26 | {FLAG}-RAELPPEFAAQLRAIGDKVYCTWSAP-{GGGT-g3(249-406)} [mNoxaA BH3 K14A, phage-displayed] | 1 | 0.037
27 | {FLAG}-RAELPPEFAAQLAKIGDKVYCTWSAP-{GGGT-g3(249-406)} [mNoxaA BH3 R13A, phage-displayed] | 1 | 0.057
28 | {FLAG}-RAELPPEFAAQLRKIGDAVYCTWSAP-{GGGT-g3(249-406)} [mNoxaA BH3 K18A, phage-displayed] | < 1 | 0.011
29 | {FLAG}-RAALPPEFAAQLRKIGDKVYCTWSAP-{GGGT-g3(249-406)} [mNoxaA BH3 E3A, phage-displayed] | 1 | 0.03
30 | {FLAG}-RAELPAEFAAQLRKIGDKVYCTWSAP-{GGGT-g3(249-406)} [mNoxaA BH3 P6A, phage-displayed] | < 1 | 0.008
31 | RAELPPEFAAQLRKIGDKVACTWSAP-{GGGT-g3(249-406)} (not fully specified (N-terminus)) [mNoxaA BH3 Y20A, phage-displayed] | 1 | 0.032
32 | {FLAG}-RAELPPEFAAALRKIGDKVYCTWSAP-{GGGT-g3(249-406)} [mNoxaA BH3 Q11A, phage-displayed] | 1 | 0.022
33 | RAELPPEFAAQLRKIGDKVYCTASAP-{GGGT-g3(249-406)} (not fully specified (N-terminus)) [mNoxaA BH3 W23A, phage-displayed] | 2 | 0.069
34 | QEDIIRNIARHLAQAGDSMDRSIPPG [Bid BH3 V15A, phage-displayed] | 2 | 0.245
35 | PSSTMGQVGRQAAIIGDDINRRYDSE [Bak BH3 L12A, phage-displayed] | 20 | 0.414
36 | PSSTMGQVGRQLAIAGDDINRRYDSE [Bak BH3 I15A, phage-displayed] | 25 | 0.517
37 | PSSTMGQVGRQLAIIGDDANRRYDSE [Bak BH3 I19A, phage-displayed] | 9 | 0.185
38 | PSSTMGQAGRQLAIIGDDINRRYDSE [Bak BH3 V8A, phage-displayed] | 4 | 0.079
39 | {FLAG}-RAELPPEFEAQLRKIGDKVYCTWSAP-{GGGT-g3(249-406)} [mNoxaA BH3 A9E, phage-displayed] | 2 | 0.076
40 | {FLAG}-RAELPPEFAEQLRKIGDKVYCTWSAP-{GGGT-g3(249-406)} [mNoxaA BH3 A10E, phage-displayed] | 1 | 0.043
41 | {FLAG}-RAELPPEFAAQLRKIGDKVYATWSAP-{GGGT-g3(249-406)} [mNoxaA BH3 C21A, phage-displayed] | 1 | 0.019
42 | {FLAG}-RAELPPEFAAQARKIGDKVYCTWSAP-{GGGT-g3(249-406)} [mNoxaA BH3 L12A, phage-displayed] | 2 | 0.067
43 | PSSTMGQVERQLAIIGDDINRRYDSE [Bak BH3 G9E, phage-displayed] | 21 | 0.438
44 | {FLAG}-RAELPPEFAAQLRKIGDKVYCTWSEP-{GGGT-g3(249-406)} [mNoxaA BH3 A25E, phage-displayed] | 1 | 0.033
45 | {FLAG}-AAELPPEFAAQLRKIGDKVYCTWSAP-{GGGT-g3(249-406)} [mNoxaA BH3 R1A, phage-displayed] | 1 | 0.02
46 | {FLAG}-REELPPEFAAQLRKIGDKVYCTWSAP-{GGGT-g3(249-406)} [mNoxaA BH3 A2E, phage-displayed] | 1 | 0.022
47 | {FLAG}-RAELPPAFAAQLRKIGDKVYCTWSAP-{GGGT-g3(249-406)} [mNoxaA BH3 E7A, phage-displayed] | 1 | 0.043
48 | RAELPPEFAAQLRKIGDKVYCTWSAP-{GGGT-g3(249-406)} (not fully specified (N-terminus)) [mNoxaA BH3 wild type, phage-displayed] | 1 | 0.039
49 | {FLAG}-RAEAPPEFAAQLRKIGDKVYCTWSAP-{GGGT-g3(249-406)} [mNoxaA BH3 L4A, phage-displayed] | 1 | 0.024
50 | {FLAG}-RAELPPEFAAQLRKIGDKVYCTWAAP-{GGGT-g3(249-406)} [mNoxaA BH3 S24A, phage-displayed] | < 1 | 0.013
51 | PSSTMGQVGRQLEIIGDDINRRYDSE [Bak BH3 A13E, phage-displayed] | 17 | 0.356
